Experimental findings from patent US20030124117A1 are described below.

In assay [1] the target is truncated transmembrane tissue factor comprising residues 1-243, relipidated (human) (UniProt P13726). As to the kind of experiment: cell-based or functional assay.
Assay [2] has as its target soluble tissue factor composed of the extracellular domain residues 1-219 of hTF (human) (UniProt P13726). As to the kind of experiment: TF binding assay (ELISA on coated human soluble TF), ratio to chimeric F(ab) standard. On the technique in general: An ELISA detects its analyte on a solid surface through an enzyme-linked reagent.
In assay [3] the target is relipidated human tissue factor (Innovin) (human) (UniProt P13726). As to the kind of experiment: cell-based or functional assay.
In assay [4] the target is tissue factor on human J82 cells (human) (UniProt P13726). As to the kind of experiment: cell-based or functional assay.
Assay [5] concerns the target truncated transmembrane tissue factor comprising residues 1-243, relipidated (human) (UniProt P13726). As to the kind of experiment: cell-based or functional assay. The source holds these as a separate data set.

Where two headings read alike, the source gives them in different places.

Chain of soluble tissue factor composed of the extracellular domain residues 1-219 of hTF (human) (P13726 33-251): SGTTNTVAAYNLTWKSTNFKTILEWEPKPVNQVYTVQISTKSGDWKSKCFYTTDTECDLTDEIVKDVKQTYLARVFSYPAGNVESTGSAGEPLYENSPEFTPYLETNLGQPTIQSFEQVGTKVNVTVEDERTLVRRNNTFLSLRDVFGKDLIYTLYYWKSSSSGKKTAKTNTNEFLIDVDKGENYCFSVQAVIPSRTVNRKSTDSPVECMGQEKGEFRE
Chain of truncated transmembrane tissue factor comprising residues 1-243, relipidated (human) (P13726 33-275): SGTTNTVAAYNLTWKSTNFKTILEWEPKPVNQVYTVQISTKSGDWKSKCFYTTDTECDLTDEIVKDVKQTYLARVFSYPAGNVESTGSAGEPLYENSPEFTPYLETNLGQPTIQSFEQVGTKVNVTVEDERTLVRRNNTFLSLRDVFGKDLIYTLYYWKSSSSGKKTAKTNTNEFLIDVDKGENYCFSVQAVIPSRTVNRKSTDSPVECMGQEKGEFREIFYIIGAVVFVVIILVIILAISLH
Chain of relipidated human tissue factor (Innovin) (human) (P13726 33-295 limits assumed): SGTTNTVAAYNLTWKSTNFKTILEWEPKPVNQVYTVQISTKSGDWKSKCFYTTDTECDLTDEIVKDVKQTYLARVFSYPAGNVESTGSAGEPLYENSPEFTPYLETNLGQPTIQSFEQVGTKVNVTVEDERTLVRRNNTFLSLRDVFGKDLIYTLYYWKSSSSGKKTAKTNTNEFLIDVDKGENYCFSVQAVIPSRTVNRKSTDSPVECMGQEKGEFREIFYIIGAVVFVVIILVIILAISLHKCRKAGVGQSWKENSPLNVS
Chain of tissue factor on human J82 cells (human) (P13726 33-295): as the sequence (P13726 33-295 limits assumed) above

On to HTF1 antibody, for which, in assay [1], the concentration inhibiting the rate of FX activation in human plasma by 50% was 150 µg/mL.

Turning to “chimeric D3 F(ab) with CDR-H2 Asp H65 changed to Gly (Fab)”, the fold reduction in binding against chimeric D3 F(ab) in assay [2] was 14.2 fold.

For the molecule “chimeric D3 F(ab) with CDR-H3 Thr96-Ala97-Ala98 changed to TF8 Asn96-Ser97-Tyr98 (Fab)”, the fold reduction in binding against chimeric D3 F(ab) in assay [2] amounted to 20.3 fold.

B1: murine anti-TF antibody 5G6 (antibody, V domains shown)
VH: EVLLQQSGPELVKPGASVKIPCKASGYTFTEYNMDWVKQSHGKSLEWIGDINPNNGNTIYNQKFKGKATLTVDKSSTTAYLELRSLTSEDTAVYFCARDHDYYFDFWGQGTTLTVSS
VL: DIQMTQTPASQSASLGESVTITCLASQTIDTWLAWYQQKPGKSPQLLIYAATSLADGVPSRFSGSGSGTKFSFKISSLQAEDFVSYYCQQPYSSPYTFGGGTKLELKR
modifications: murine constant regions
With B1, the antibody concentration prolonging the clotting time (PT) by 1.5-fold in assay [3] is 27 µg/mL. Moreover, the IC50 of FPA generation, human ex-vivo blood flow system with J82 cells in assay [4] was determined as 50 µg/mL. The same molecule came in with a concentration inhibiting the rate of FX activation in human plasma by 50% in assay [5] of 15.5 µg/mL.
